Data set [1] concerns HeLa Kyoto. The data set can be described thus: solubility in G1/S (NP-40 vs SDS abundance) (log2 ratio); higher = more soluble. As to conditions: cell cycle stage: G1/S.
The test system of data set [2] is HeLa Kyoto. The data set can be described thus: melting temperature (median over replicates), in situ; higher = more thermally stable.
Data set [3] has as its system HeLa Kyoto. The data set can be described thus: solubility change mitosis vs G1/S (difference of NP-40 vs SDS log2 ratios) (log2 ratio difference); higher = more soluble in mitosis.
The test system of data set [4] is HeLa Kyoto. Nature of the data set: thermal stability score vs G1/S (z-score of summed log2 fold changes over temperatures); higher = more thermally stable than in G1/S.
Where [5] appears, read: cell cycle stage: early G1 (4.5 h after nocodazole release).

The source of these data is the supplement of paper PMC5998384.
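For melting temperature (median over replicates), in situ in this document: HeLa Kyoto cells synchronized by double thymidine or nocodazole block, proteins quantified by TMT10plex mass spectrometry, three independent biological replicates.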
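For solubility change mitosis vs G1/S (difference of NP-40 vs SDS log2 ratios) in this document: synchronized HeLa Kyoto cells (double thymidine block for G1/S, nocodazole release for mitosis), protein amounts in NP-40 versus SDS lysates quantified by mass spectrometry, three biological replicates.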
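For solubility in G1/S (NP-40 vs SDS abundance) in this document: HeLa Kyoto cells arrested at G1/S by double thymidine block, proteins quantified by TMT10plex mass spectrometry in mild NP-40 versus SDS extracts, three biological replicates.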
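For thermal stability score vs G1/S (z-score of summed log2 fold changes over temperatures) in this document: synchronized HeLa Kyoto cells, proteins quantified by TMT10plex mass spectrometry, three biological replicates, mitosis taken 0.5 h after nocodazole release, G1/S directly after double thymidine block.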

Chain of YBX3 (chain, as listed by the source): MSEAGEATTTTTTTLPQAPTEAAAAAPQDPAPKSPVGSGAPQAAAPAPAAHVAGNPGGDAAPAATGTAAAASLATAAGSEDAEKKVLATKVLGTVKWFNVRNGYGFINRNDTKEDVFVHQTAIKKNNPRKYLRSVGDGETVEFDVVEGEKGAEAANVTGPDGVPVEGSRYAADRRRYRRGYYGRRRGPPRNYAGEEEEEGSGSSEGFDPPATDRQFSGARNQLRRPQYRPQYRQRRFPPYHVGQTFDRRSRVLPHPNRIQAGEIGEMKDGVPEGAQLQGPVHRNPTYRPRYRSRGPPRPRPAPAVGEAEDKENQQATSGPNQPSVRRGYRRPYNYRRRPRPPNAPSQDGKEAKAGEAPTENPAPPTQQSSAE
Chain of SLTM (chain, as listed by the source): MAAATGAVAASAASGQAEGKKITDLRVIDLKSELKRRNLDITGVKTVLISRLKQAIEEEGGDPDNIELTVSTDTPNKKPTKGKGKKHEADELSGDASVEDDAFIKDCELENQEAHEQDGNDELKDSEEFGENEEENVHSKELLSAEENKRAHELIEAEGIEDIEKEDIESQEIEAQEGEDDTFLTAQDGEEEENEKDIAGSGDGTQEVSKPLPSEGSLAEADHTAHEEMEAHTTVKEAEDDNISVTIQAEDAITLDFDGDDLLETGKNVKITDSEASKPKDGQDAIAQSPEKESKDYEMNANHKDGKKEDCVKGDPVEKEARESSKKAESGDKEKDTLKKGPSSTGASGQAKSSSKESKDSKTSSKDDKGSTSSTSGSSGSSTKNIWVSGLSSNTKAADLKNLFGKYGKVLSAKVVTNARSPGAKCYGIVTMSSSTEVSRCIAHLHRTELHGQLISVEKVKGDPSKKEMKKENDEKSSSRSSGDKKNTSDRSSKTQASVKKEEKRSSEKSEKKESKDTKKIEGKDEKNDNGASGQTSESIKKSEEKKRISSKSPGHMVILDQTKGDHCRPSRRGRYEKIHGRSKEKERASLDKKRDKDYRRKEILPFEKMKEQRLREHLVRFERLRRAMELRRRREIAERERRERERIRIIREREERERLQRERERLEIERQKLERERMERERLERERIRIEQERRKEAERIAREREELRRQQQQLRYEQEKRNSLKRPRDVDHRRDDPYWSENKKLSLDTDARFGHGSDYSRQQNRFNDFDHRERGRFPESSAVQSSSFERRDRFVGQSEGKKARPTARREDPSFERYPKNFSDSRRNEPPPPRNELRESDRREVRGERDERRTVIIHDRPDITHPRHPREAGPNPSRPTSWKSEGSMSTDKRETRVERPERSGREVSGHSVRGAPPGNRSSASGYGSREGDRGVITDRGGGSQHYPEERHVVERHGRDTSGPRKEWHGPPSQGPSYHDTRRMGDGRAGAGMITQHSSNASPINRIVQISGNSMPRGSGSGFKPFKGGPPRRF

With “MTTPANAQNASKTWELSLYELHRTPQEAIMDGTEIAVSPRSLHSELMCPICLDMLKNTMTTKECLHRFCSDCIVTALRSGNKECPTCRKKLVSKRSLRPDPNFDALISKIYPSREEYEAHQDRVLIRLSRLHNQQALSSSIEEGLRMQAMHRAQRVRRPIPGSDQTTTMSGGEGEPGEGEGDGEDVSSDSAPDSAPGPAPKRPRGGGAGGSSVGTGGGGTGGVGGGAGSEDSGDRGGTLGGGTLGPPSPPGAPSPPEPGGEIELVFRPHPLLVEKGEYCQTRYVKTTGNATVDHLSKYLALRIALERRQQQEAGEPGGPGGGASDTGGPDGCGGEGGGAGGGDGPEEPALPSLEGVSEKQYTIYIAPGGGAFTTLNGSLTLELVNEKFWKVSRPLELCYAPTKDPK [RING1]”, the “solubility in G1/S (log2)” value with HeLa Kyoto [1] was -0.00962. Besides, the melting temperature with HeLa Kyoto [2] (cell cycle stage: mitosis) turned out to be 50 °C. Further, in the data set on HeLa Kyoto [3], the “solubility change mitosis (log2)” value is 0.222. Moreover, the thermal stability score came out at 0.769 in the data set with HeLa Kyoto [4] (setting [5]) and 1.05 in the data set with HeLa Kyoto [4] (cell cycle stage: mitosis).
Consider SLTM, for which the “solubility in G1/S (log2)” value in the data set with HeLa Kyoto [1] is -1.17. For the same substance, the figures for the melting temperature in the data set on HeLa Kyoto [2] (cell cycle stage: G1/S) and in the data set with HeLa Kyoto [2] (cell cycle stage: mitosis) were 51.1 °C and 51.4 °C, respectively. Also, the “solubility change mitosis (log2)” value in the data set with HeLa Kyoto [3] was found to be 0.595. For the same substance, the values for the thermal stability score with HeLa Kyoto [4] (setting [5]) and with HeLa Kyoto [4] (cell cycle stage: mitosis) were 0.205 and 2.43, respectively.
As for CEP170, in the data set with HeLa Kyoto [1], the “solubility in G1/S (log2)” value was -0.112. For the same substance, the melting temperature was determined as 50.3 °C in the data set with HeLa Kyoto [2] (cell cycle stage: G1/S) and 51.5 °C in the data set with HeLa Kyoto [2] (cell cycle stage: mitosis). Besides, the “solubility change mitosis (log2)” value in the data set with HeLa Kyoto [3] was found to be 0.0625. Also, the thermal stability score with HeLa Kyoto [4] (setting [5]) worked out at 0.653; in the data set on HeLa Kyoto [4] (cell cycle stage: mitosis), 2.64.
In the case of “MAAQCVTKVALNVSCANLLDKDIGSKSDPLCVLFLNTSGQQWYEVERTERIKNCLNPQFSKTFIIDYYFEVVQKLKFGVYDIDNKTIELSDDDFLGECECTLGQIVSSKKLTRPLVMKTGRPAGKGSITISAEEIKDNRVVLFEMEARKLDNKDLFGKSDPYLEFHKQTSDGNWLMVHRTEVVKNNLNPVWRPFKISLNSLCYGDMDKTIKVECYDYDNDGSHDLIGTFQTTMTKLKEASRSSPVEFECINEKKRQKKKSYKNSGVISVKQCEITVECTFLDYIMGGCQLNFTVGVDFTGSNGDPRSPDSLHYISPNGVNEYLTALWSVGLVIQDYDADKMFPAFGFGAQIPPQWQVSHEFPMNFNPSNPYCNGIQGIVEAYRSCLPQIKLYGPTNFSPIINHVARFAAAATQQQTASQYFVLLIITDGVITDLDETRQAIVNASRLPMSIIIVGVGGADFSAMEFLDGDGGSLRSPLGEVAIRDIVQFVPFRQFQNAPKEALAQCVLAEIPQQVVGYFNTYKLLPPKNPATKQQKQ [CPNE3]”, the “solubility in G1/S (log2)” value in the data set with HeLa Kyoto [1] was -0.0447. The melting temperature with HeLa Kyoto [2] (cell cycle stage: G1/S) and in the data set on HeLa Kyoto [2] (cell cycle stage: mitosis) was 50.8 °C in each case. Besides, the “solubility change mitosis (log2)” value in the data set on HeLa Kyoto [3] is -0.146. Moreover, the thermal stability score was 1.91 in the data set with HeLa Kyoto [4] (setting [5]) and -0.0585 with HeLa Kyoto [4] (cell cycle stage: mitosis).
YBX3: the “solubility in G1/S (log2)” value in the data set on HeLa Kyoto [1] came out at 0.366. Moreover, the melting temperature turned out to be 54 °C with HeLa Kyoto [2] (cell cycle stage: G1/S) and 53.8 °C in the data set on HeLa Kyoto [2] (cell cycle stage: mitosis). In addition, the “solubility change mitosis (log2)” value in the data set on HeLa Kyoto [3] was -0.0607. Also, the figures for the thermal stability score in the data set with HeLa Kyoto [4] (setting [5]) and with HeLa Kyoto [4] (cell cycle stage: mitosis) were -3.49 and -8.21, respectively.
With “MNFRQLLLHLPRYLGASGSPRRLWWSPSLDTISSVGSWRGRSSKSPAHWNQVVSEAEKIVGYPTSFMSLRCLLSDELSNIAMQVRKLVGTQHPLLTTARGLVHDSWNSLQLRGLVVLLISKAAGPSSVNTSCQNYDMVSGIYSCQRSLAEITELIHIALLVHRGIVNLNELQSSDGPLKDMQFGNKIAILSGDFLLANACNGLALLQNTKVVELLASALMDLVQGVYHENSTSKESYITDDIGISTWKEQTFLSHGALLAKSCQAAMELAKHDAEVQNMAFQYGKHMAMSHKINSDVQPFIKEKTSDSMTFNLNSAPVVLHQEFLGRDLWIKQIGEAQEKGRLDYAKLRERIKAGKGVTSAIDLCRYHGNKALEALESFPPSEARSALENIVFAVTRFS [PDSS2]”, the “solubility in G1/S (log2)” value in the data set on HeLa Kyoto [1] came to 0.217. Further, the melting temperature in the data set on HeLa Kyoto [2] (cell cycle stage: G1/S) was found to be 53.5 °C; with HeLa Kyoto [2] (cell cycle stage: mitosis), 54.1 °C. Further, the “solubility change mitosis (log2)” value with HeLa Kyoto [3] was found to be 0.169. The values for the thermal stability score in the data set on HeLa Kyoto [4] (setting [5]) and in the data set on HeLa Kyoto [4] (cell cycle stage: mitosis) were 0.42 and -0.202, respectively.
Regarding ARHGEF12, the “solubility in G1/S (log2)” value in the data set on HeLa Kyoto [1] is -0.0555. Besides, the melting temperature with HeLa Kyoto [2] (cell cycle stage: G1/S) was 50.7 °C; in the data set with HeLa Kyoto [2] (cell cycle stage: mitosis) it was 50.4 °C. In the data set on HeLa Kyoto [3], the “solubility change mitosis (log2)” value is -0.0996. For the same substance, the thermal stability score in the data set on HeLa Kyoto [4] (setting [5]) was -0.146; in the data set with HeLa Kyoto [4] (cell cycle stage: mitosis), 0.3.
